The record followed here is patent US20080280313.

The target in data set [1] is partially dephosphorylated α-casein (Sigma) (UniProt P02662).
In data set [2] the test system is CKI phosphopeptide substrate KRRRALS(p)VASLPGL (New England Biolabs).
Data set [3] has as its system CaM kinase II substrate (281-291) MHKNETVECLK (Calbiochem).
For data set [4], the system named is CKII substrate RRADDSDDDDD (Calbiochem).
In data set [5] the test system is kemptide LRRASLG (Promega).
The subject of data set [6] is CKI substrate DDDEESITRR (Promega).
Another data set concerns the target β-casein (Sigma) (UniProt P02666).
The test system of data set [7] is Syntide-2 substrate PLARTLSVAGLPGKK (Calbiochem).
The test system of data set [8] is CKII substrate RRREEETEEE (New England Biolabs).

Sequence of β-casein (Sigma) (P02666 16-224): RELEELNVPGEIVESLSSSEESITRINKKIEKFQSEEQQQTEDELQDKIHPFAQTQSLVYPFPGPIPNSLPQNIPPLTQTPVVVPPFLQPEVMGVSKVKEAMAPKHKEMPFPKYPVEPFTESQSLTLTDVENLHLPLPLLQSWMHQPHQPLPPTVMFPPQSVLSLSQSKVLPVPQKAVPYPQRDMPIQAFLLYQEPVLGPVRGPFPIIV
Sequence of partially dephosphorylated α-casein (Sigma) (P02662 16-214): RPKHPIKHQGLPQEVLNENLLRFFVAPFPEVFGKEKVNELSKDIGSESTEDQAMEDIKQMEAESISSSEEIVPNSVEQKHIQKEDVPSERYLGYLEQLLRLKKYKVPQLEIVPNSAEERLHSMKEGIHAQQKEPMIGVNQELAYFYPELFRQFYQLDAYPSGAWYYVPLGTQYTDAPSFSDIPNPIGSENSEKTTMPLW

For “native TgCKIα, partially purified from Toxoplasma gondii tachyzoites”, the Km(app) in [1] worked out at 3 µM; in data set [2], 20 µM; in the data set with β-casein (Sigma), 13 µM. Also, the “kinase activity with peptide substrate” value in data set [3], in [4], in data set [5], in data set [6], in [7] and in [8] was “failed to show concentration dependent kinase activity” each time.

With “FLAGTgCKIα, N-terminal FLAG epitope tagged Toxoplasma gondii casein kinase I alpha”, the Km(app) in data set [1] is 4 µM; in [2], 80 µM; in the data set with β-casein (Sigma), 30 µM. The Vmax(app) (nmole min^-1 mg^-1) in data set [1] was 8; in data set [2], 26; with β-casein (Sigma) it was 8. The “kinase activity with peptide substrate” value in data set [3], in [4], in data set [5], in [6], in data set [7] and in data set [8] was “failed to show concentration dependent kinase activity” in each case.
